{"source": "paper PMC6275225", "origin": "cited, not measured here", "target": "LFA-3 (Homo sapiens) (UniProt P19256)", "sequence (P19256 29-215)": "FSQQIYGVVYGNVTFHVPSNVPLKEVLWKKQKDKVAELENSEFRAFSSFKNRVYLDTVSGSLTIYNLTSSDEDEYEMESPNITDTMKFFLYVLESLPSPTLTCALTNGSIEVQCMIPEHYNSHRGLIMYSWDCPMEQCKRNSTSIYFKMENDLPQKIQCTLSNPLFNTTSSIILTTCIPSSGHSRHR"}
{"substance": "CD2 (from UniProt P06729)", "values": [{"measurement": "Kd", "value": 15, "unit": "µM"}]}
